According to the supplement of paper PMC10724198:
± gives the standard deviation of the averaged measurements.

Tested on: Saccharomyces cerevisiae
Test: protein stability index of tFT-peptide fusion (C-terminal peptide) (PSI (0-1 scale)); higher = more stable (slower turnover)
Conditions: temperature: 30 C
Experimental: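 MPS profiling in S. cerevisiae of the yeast C-terminome library: the last 12 aa of each annotated ORF are fused to the C-terminus of a sfGFP-mCherry timer, after a GGGS linker. Cells are FACS-sorted into 8 mCherry/sfGFP bins and deep-sequenced. PSI runs from 0 (unstable) to 1 (stable); wild type and das1Δ backgrounds, two technical replicates each.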

[1] = genetic background: das1 deletion

Work on YLKNFFVKQKVV [ERP5 C-terminal 12 aa] yielded a protein stability index [1] of 0.549 ± 0.0073 and a protein stability index (genetic background: wild type) of 0.16 ± 0.026.

For EKEALWKFAKRL [ATP10 C-terminal 12 aa], the protein stability index [1] was 0.699 ± 0.032 and the protein stability index (genetic background: wild type) was 0.3037 ± 0.00067.

VLMKQLDEIIRK [BUD14 C-terminal 12 aa] showed a protein stability index [1] of 0.6982 ± 0.0046 and a protein stability index (genetic background: wild type) of 0.704 ± 0.058.

Sequence DEMHYSDEDSSE [RRN11 C-terminal 12 aa] has a protein stability index [1] of 0.699 ± 0.073 and a protein stability index (genetic background: wild type) of 0.709 ± 0.028.

DEGRNTSSVVNK [MAL31 C-terminal 12 aa] was tested, and the protein stability index [1] was 0.688 ± 0.0089 and the protein stability index (genetic background: wild type) was 0.7419 ± 0.0019.

YDLQALFKYFFS [ADY3 C-terminal 12 aa] showed a protein stability index [1] of 0.691 ± 0.011 and a protein stability index (genetic background: wild type) of 0.64 ± 0.022.

VIWEKVYESKTK [LSM8 C-terminal 12 aa] was tested, and the protein stability index [1] was 0.724 ± 0.018 and the protein stability index (genetic background: wild type) was 0.761 ± 0.057.

RLKDGSVTCIKS [HMG1 C-terminal 12 aa] was tested, and the protein stability index [1] was 0.7299 ± 0.0059 and the protein stability index (genetic background: wild type) was 0.7 ± 0.021.

For TNIIRETLKSLN [ATP22 C-terminal 12 aa], the protein stability index [1] was 0.786 ± 0.1.

With LLGENLSDMPSL [RDS1 C-terminal 12 aa] the protein stability index [1] was 0.6893 ± 0.0025 and the protein stability index (genetic background: wild type) was 0.693 ± 0.021.

For MISGPSSSSSAP [CYC3 C-terminal 12 aa], the protein stability index [1] was 0.719 ± 0.012 and the protein stability index (genetic background: wild type) was 0.741 ± 0.081.

For LALFAGLISALL [GAS3 C-terminal 12 aa], the protein stability index [1] was 0.71854 ± 0.00069 and the protein stability index (genetic background: wild type) was 0.654 ± 0.0065.

FGKRRFFYRDLA [YPR146C C-terminal 12 aa] showed a protein stability index [1] of 0.6901 ± 0.0029 and a protein stability index (genetic background: wild type) of 0.693 ± 0.014.

With QRTQAICIDKKW [YJL135W C-terminal 12 aa] the protein stability index [1] was 0.697 ± 0.014 and the protein stability index (genetic background: wild type) was 0.6986 ± 0.0032.

Sequence DWAPGKQLEMNH [JAC1 C-terminal 12 aa] has a protein stability index [1] of 0.699 ± 0.018 and a protein stability index (genetic background: wild type) of 0.743 ± 0.042.

VFLKKDTDIYIC [YML084W C-terminal 12 aa] was tested, and the protein stability index [1] was 0.63 ± 0.019 and the protein stability index (genetic background: wild type) was 0.612 ± 0.03.

In the case of LVYRDGEISELK [PAT1 C-terminal 12 aa], the protein stability index [1] is reported as 0.7114 ± 0.0045 and the protein stability index (genetic background: wild type) is reported as 0.703 ± 0.13.

EAVDRIVSHDEL [SEC20 C-terminal 12 aa] showed a protein stability index [1] of 0.702 ± 0.014 and a protein stability index (genetic background: wild type) of 0.6744 ± 0.00081.

IDVELEEESFTW [FRE1 C-terminal 12 aa] gave a protein stability index [1] of 0.698 ± 0.024 and a protein stability index (genetic background: wild type) of 0.743 ± 0.022.

RDREMVRELFRR [RSO55 C-terminal 12 aa] was tested, and the protein stability index [1] was 0.711 ± 0.017 and the protein stability index (genetic background: wild type) was 0.692 ± 0.021.

LKGILNLFSKIR [KRE29 C-terminal 12 aa] showed a protein stability index [1] of 0.671 ± 0.0078 and a protein stability index (genetic background: wild type) of 0.699 ± 0.025.

With “IYAALPKSKIKL [YMR304C-A C-terminal 12 aa]” the protein stability index [1] was 0.698 ± 0.012 and the protein stability index (genetic background: wild type) was 0.737 ± 0.013.

“FRVVLNAQLNIQ [YOR108C-A C-terminal 12 aa]” showed a protein stability index [1] of 0.69 ± 0.036 and a protein stability index (genetic background: wild type) of 0.674 ± 0.006.

In the case of GALALGLISYLL [FIT2 C-terminal 12 aa], the protein stability index [1] is reported as 0.695 ± 0.007 and the protein stability index (genetic background: wild type) is reported as 0.686 ± 0.014.

FRLQEEQTNMRS [MSM1 C-terminal 12 aa] gave a protein stability index [1] of 0.713 ± 0.02 and a protein stability index (genetic background: wild type) of 0.758 ± 0.02.

AKDIKGYGTQKI [PRE4 C-terminal 12 aa] gave a protein stability index [1] of 0.65979 ± 0.00058 and a protein stability index (genetic background: wild type) of 0.695 ± 0.022.

FIWQNVLMWLMG [YIF1 C-terminal 12 aa] showed a protein stability index [1] of 0.7 ± 0.011 and a protein stability index (genetic background: wild type) of 0.54 ± 0.017.

In the case of SGGFGGSGSGFI [FUB1 C-terminal 12 aa], the protein stability index [1] is reported as 0.6972 ± 0.0036 and the protein stability index (genetic background: wild type) is reported as 0.691 ± 0.013.

RRTQAQSRSRKA [PKR1 C-terminal 12 aa] showed a protein stability index [1] of 0.675 ± 0.0088 and a protein stability index (genetic background: wild type) of 0.706 ± 0.037.

With EVLHEWKSHINQ [BIO3 C-terminal 12 aa] the protein stability index [1] was 0.743 ± 0.017 and the protein stability index (genetic background: wild type) was 0.6763 ± 0.0056.

STDEKRLVMSLK [IMH1 C-terminal 12 aa] showed a protein stability index [1] of 0.692 ± 0.042 and a protein stability index (genetic background: wild type) of 0.709 ± 0.014.

Sequence VQLIDGPEEMHR [SHO1 C-terminal 12 aa] has a protein stability index [1] of 0.726 ± 0.009 and a protein stability index (genetic background: wild type) of 0.663 ± 0.008.

ETLEAETVKIDI [POL31 C-terminal 12 aa] was tested, and the protein stability index [1] was 0.69571 ± 0.00029 and the protein stability index (genetic background: wild type) was 0.7012 ± 0.0013.

Work on PISPIGNAGSQI [MIN10 C-terminal 12 aa] yielded a protein stability index [1] of 0.696 ± 0.00098 and a protein stability index (genetic background: wild type) of 0.6629 ± 0.0022.

For “CSTFAFAERLQC [YIL021C-A C-terminal 12 aa]”, the protein stability index [1] was 0.6901 ± 0.003 and the protein stability index (genetic background: wild type) was 0.642 ± 0.029.

With DHQVDFLGNKIL [YLR463C C-terminal 12 aa] the protein stability index [1] was 0.712 ± 0.0082 and the protein stability index (genetic background: wild type) was 0.715 ± 0.022.

FTNEIINKLSTM [IDH1 C-terminal 12 aa] gave a protein stability index [1] of 0.692 ± 0.052 and a protein stability index (genetic background: wild type) of 0.5514 ± 0.0019.

Work on IFIFSWLGYEDS [ATG10 C-terminal 12 aa] yielded a protein stability index [1] of 0.661 ± 0.043 and a protein stability index (genetic background: wild type) of 0.664 ± 0.019.

In the case of IDEFYECLQDQQ [DCN1 C-terminal 12 aa], the protein stability index [1] is reported as 0.704 ± 0.0073 and the protein stability index (genetic background: wild type) is reported as 0.721 ± 0.013.

In the case of EEDPEYFQHALQ [GRX4 C-terminal 12 aa], the protein stability index [1] is reported as 0.71049 ± 4e-05 and the protein stability index (genetic background: wild type) is reported as 0.715 ± 0.049.

For NNKSIQKVNSPS [PAC2 C-terminal 12 aa], the protein stability index [1] was 0.709 ± 0.0075 and the protein stability index (genetic background: wild type) was 0.807 ± 0.035.

For KPIEKVYFNRGI [FSF1 C-terminal 12 aa], the protein stability index [1] was 0.713 ± 0.051 and the protein stability index (genetic background: wild type) was 0.7368 ± 0.0054.
